The results in this text go back to PMC9513909, “Genomic distribution and context dependent functionality of novel WRKY transcription factor binding sites”.

In series [1] the target is T1, WRKY70 (Arabidopsis thaliana, UniProt Q9LY00 1-294).
T1 sequence: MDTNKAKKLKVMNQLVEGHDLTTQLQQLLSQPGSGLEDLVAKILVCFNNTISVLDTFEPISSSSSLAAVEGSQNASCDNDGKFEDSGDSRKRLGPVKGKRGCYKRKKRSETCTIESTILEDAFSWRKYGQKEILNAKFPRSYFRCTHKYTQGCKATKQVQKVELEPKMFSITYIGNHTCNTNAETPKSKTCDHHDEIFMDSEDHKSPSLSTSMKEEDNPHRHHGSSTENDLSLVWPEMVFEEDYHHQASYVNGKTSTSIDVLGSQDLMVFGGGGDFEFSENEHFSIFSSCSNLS
The series can be described thus: competition; 4000-fold excess against labelled S2; EMSA with 3' biotin-labelled probes (LightShift kit detection); buffer, salt, pH and temperature not given (earlier protocols cited). The note with it: protein: recombinant; label: unlabelled.

Series [2] deals with T2, WRKY50BD (Arabidopsis thaliana, UniProt Q8VWQ5 86-173). The description is as above. Particulars: protein: recombinant; label: unlabelled.
T2 sequence (Q8VWQ5 86-173): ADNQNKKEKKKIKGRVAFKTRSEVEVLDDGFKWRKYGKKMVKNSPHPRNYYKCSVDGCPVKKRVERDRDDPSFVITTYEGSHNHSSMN
The target of series [3] is T1, WRKY70. The experiment in a line: EMSA; EMSA with 3' biotin-labelled probes (LightShift kit detection); buffer, salt, pH and temperature not given (earlier protocols cited). The note with it: protein: recombinant; label: 3' biotin (probe). A general note: In EMSA bound probe runs differently from free probe, usually more slowly.
The target in series [4] is T2, WRKY50BD. The series can be described thus: EMSA; shift abolished or strongly reduced by 4000-fold unlabelled S1; EMSA with 3' biotin-labelled probes (LightShift kit detection); buffer, salt, pH and temperature not given (earlier protocols cited). The note with it: protein: recombinant; label: 3' biotin (probe).
In series [5] the target is T2, WRKY50BD. The experiment in a line: competition; 4000-fold excess against labelled S1; EMSA with 3' biotin-labelled probes (LightShift kit detection); buffer, salt, pH and temperature not given (earlier protocols cited). The note with it: protein: recombinant; label: unlabelled.
Series [6] addresses T1, WRKY70. The experiment in a line: EMSA; shift abolished or strongly reduced by 4000-fold unlabelled S2; EMSA with 3' biotin-labelled probes (LightShift kit detection); buffer, salt, pH and temperature not given (earlier protocols cited). Particulars: protein: recombinant; label: 3' biotin (probe).
Series [7] concerns the target T2, WRKY50BD. Described as above. The note with it: protein: recombinant; label: 3' biotin (probe).

B1: S2mut1 (dsDNA)
DNA 1: ATCGTCTAAGAGACAGTCCCTCTCGTAACTTTAT
DNA 2: ATAAAGTTACGAGAGGGACTGTCTCTTAGACGAT
Take B1: the binding result in the series with WRKY70 [1] and with WRKY50BD [2] was “no binding” each time.

B2: S1 (dsDNA)
DNA 1: CACATTTACATTGCGACTTTTCTTGCATGCCGTC
DNA 2: GACGGCATGCAAGAAAAGTCGCAATGTAAATGTG
Take B2: the values for the binding result with WRKY70 [3] and with WRKY50BD [4] were “no binding” and “binds”, respectively.

B3: S1mut1 (dsDNA)
DNA 1: CACATTTACATTGCAGTCCCTCTTGCATGCCGTC
DNA 2: GACGGCATGCAAGAGGGACTGCAATGTAAATGTG
Consider B3, for which, in the series with WRKY50BD [5], the binding result is recorded as “no binding”.

B4: S2 (dsDNA)
DNA 1: ATCGTCTAAGAGACGACTTTTCTCGTAACTTTAT
DNA 2: ATAAAGTTACGAGAAAAGTCGTCTCTTAGACGAT
Turning to B4, the binding result with WRKY70 [6] and with WRKY50BD [7] was “binds” in each case.
